The text below walks through data of patent US20240400691A1 (FBD BIOLOGICS, published 2024).

Assay [1] addresses T1, human CD47 (human, UniProt Q08722 19-323).
T1 construct: whole, on cells; also called CD47 tf CHO-S; endogenous CD47 on FaDu and NCI-H460 cells
Kind of assay: flow cytometry on human platelets (CD47 on platelets per paragraph 5), PE goat anti-human IgG. Background: In flow cytometry, cells or beads pass a laser one at a time.
Protocol: (§1) The samples were analyzed using a CytoFLEX flow cytometer (Beckman Coulter Inc., CA, USA).

For assay [2], the target named is T2, human PD-L1 (human, UniProt Q9NZQ7 19-290).
T2 construct: whole, on cells; For the PD-L1 tf DLD1 cells the species of PD-L1 is not restated; also called PD-L1 tf CHO-S; PD-L1 tf DLD1
T2 sequence (Q9NZQ7 19-290): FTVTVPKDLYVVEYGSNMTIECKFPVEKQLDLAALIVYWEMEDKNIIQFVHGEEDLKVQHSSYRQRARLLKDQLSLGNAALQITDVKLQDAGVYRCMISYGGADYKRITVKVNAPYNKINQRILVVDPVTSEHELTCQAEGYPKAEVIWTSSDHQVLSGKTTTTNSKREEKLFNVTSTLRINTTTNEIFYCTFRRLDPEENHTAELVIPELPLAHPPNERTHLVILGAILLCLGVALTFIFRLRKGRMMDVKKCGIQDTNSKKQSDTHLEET
Put plainly: flow cytometry on PD-L1 tf DLD1 cells in a 1:1 mixture with DLD1 cells, PE goat anti-human IgG [D].
Protocol: The selective binding ability of HCB301_v5 proteins to PD-L1-expressing cells was determined as follows. DLD1 cells were labeled with CellTrace™ CFSE (Thermo, Cat #: C34554) and tf DLD1 cells expressing PD-L1 (PD-L1 tf DLD1) were labeled with Celltrace™ (Thermo, Cat #: C34557) according to the instructions provided by manufacturer. […] The samples were analyzed using a CytoFLEX flow cytometer (Beckman Coulter Inc., CA, USA). Afterwards, the cells were gated according to PE signals to calculate the percentages of different cell types by Kaluza analysis software (Beckman Coulter Inc.).

Assay [3] concerns the target T2, human PD-L1. Kind of assay: flow cytometry competition on PD-L1 tf CHO-S cells against a fixed concentration of biotinylated PD1_G4, streptavidin-PE; IC50 from the table under the curves.
Assay [4] has as its target T2, human PD-L1. Kind of assay: flow cytometry on PD-L1 tf CHO-S cells, PE goat anti-human IgG; EC50 from the table under the curves.
Protocol: as §1
The EC50 values were also determined according to the binding curves.
Assay [5] deals with T1, human CD47. Put plainly: flow cytometry on CD47 tf CHO-S cells, PE goat anti-human IgG.
Protocol: To determine the whole cell binding ability of the HCB301_v5 proteins to CD47 expressed on cell surface, tf CHO-S cells expressing human CD47 (CD47 tf CHO-S) were used as target cells. […] The samples were analyzed using a CytoFLEX flow cytometer (Beckman Coulter Inc., CA, USA).
The EC50 values were determined according to the binding curves.

The EC50 (read off the curve) is the midpoint of the concentration-response curve. By IC50 is commonly meant the concentration needed to halve the response being measured. The low end stands for greater potency, the high end for weaker potency. The EC50 is the concentration giving half of the maximal effect. A high value points to a less potent agent.

B1: h1G4 (antibody, human IgG4 S228P, kappa, V domains shown)
VH: QVQLVESGGGLVKPGGSLRLSCAASGFTFSNYGMSWIRQAPGKGLEWVSTISGGGSNIYYADSVKGRFTISRDNAKNSLYLQMNSLRAEDTAVYYCVSYYYGIDFWGQGTSVTVSS
VL: DIQMTQSPSSLSASVGDRVTITCKASQDVTTAVAWYQQKPGKAPKLLIYWASTRHTGVPSRFSGSGSGTDFTLTISSLQPEDFATYYCQQHYTIPWTFGGGTKLEIKR
notes: also called negative control
For the molecule B1, in the assay with human CD47 [1], the binding result is recorded as “no binding (tested: 20 nM)”.

B2: anti-PD-L1 VHH (2H4) (VHH)
VHH: QVQLVESGGGVVQPGRSLRLSCAASGGPFMSYAMGWFRQAPGKEREFVAAIRWNGISTFYADSVKGRFTISRDNSKNTLYLQMNSLRAEDTAVYYCAAAQTIVTVPENYHFDYWGQGTQVTVSS
As for B2, in the assay with human PD-L1 [2], the “EC50 (read off the curve)” value is approximately 0.8 nM. In the assay with human PD-L1 [3], the 50% inhibitory concentration (IC50) came out at 0.392 nM. The same molecule gave an EC50 with human PD-L1 [4] of 0.22 nM. In addition, the binding result in the assay with human CD47 [5] is listed as “no binding (tested: 500 nM)”.
